Measurements from patent publication US20200190192A1 (SUTRO BIOPHARMA, published 2020).

What was measured:
[1] = molecular target: T1, cynomolgus Tim-3 expressed on CHO cells (cynomolgus monkey); test: cell binding, CHO-cyno Tim-3 cells
T1 construct: also called cTim-3; Cyno Tim-3 (CHO)
T1 chain: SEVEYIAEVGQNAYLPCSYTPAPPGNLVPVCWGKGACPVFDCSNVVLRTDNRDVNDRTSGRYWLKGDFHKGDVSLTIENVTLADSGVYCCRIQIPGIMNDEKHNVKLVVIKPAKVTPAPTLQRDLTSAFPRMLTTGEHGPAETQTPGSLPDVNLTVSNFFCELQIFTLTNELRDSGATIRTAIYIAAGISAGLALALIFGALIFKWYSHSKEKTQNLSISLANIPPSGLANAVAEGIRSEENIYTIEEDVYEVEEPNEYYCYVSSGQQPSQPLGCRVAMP

[2] = molecular target: T2, human Tim-3 (Biacore analyte; TIM-3-Fc or TIM-3-HIS, not said which) (human, UniProt Q8TDQ0 22-202); test: kinetics; method and analyte not given
T2 construct: also called TIM-3 antigen; not shown: Fc or HIS tag

[3] = molecular target: T3, human Tim-3 expressed on the cell surface (human, UniProt Q8TDQ0 22-301); test: cell binding, CHO-human Tim-3 cells
T3 construct: also called hTim-3; Human Tim-3 (CHO)

[4] = molecular target: T4, biotinylated recombinant human PD-1 (AcroBiosystems) (human, UniProt Q15116 25-167, limits assumed, biotinylated (sites not given)); test: competition, flow cytometry: biotin-PD-1 binding to CHO-human PD-L1 cells
T4 construct: Bought protein; also called biotinylated PD-1

[5] = molecular target: T5, recombinant human Tim-3-Fc (R&D Systems, 2365-TM) (human, UniProt Q8TDQ0 22-202, biotinylated in the Galectin-9 competition ELISA (sites not given)); test: AlphaLISA bridging: Tim-3-Fc acceptor beads + PD-1 donor beads (signal needs both)
T5 construct: Bought protein; also called huTim-3-Fc; biotinylated Tim-3-Fc; not shown: Fc of the bought fusion protein

[6] = molecular target: T3, human Tim-3 expressed on the cell …; test: flow cytometry, CHO-human Tim-3 cells
[7] = molecular target: T6, human PD-1 expressed on CHO cells (human, UniProt Q15116 25-288); test: flow cytometry, CHO-human PD-1 cells
T6 construct: also called hPD-1; CHO-hPD-1

[8] = molecular target: T1, cynomolgus Tim-3 expressed on CHO cells; test: flow cytometry, CHO-cyno Tim-3 cells

Binder | binding result [1] | Kd [2] | koff [2] | kon [2] | binding result [3] | IC50 [4] | EC50 [5] | Kd [6] | Kd [7] | Kd [8]
Mouse hybridoma clone 22E11 (antibody, V domains shown, Mouse antibody; also called m22E11; 250.180.2.22E11) VH: QVQLKESGPDLVAPSQSLSITCTVSGFSLTSYGVHWVRQPPGKGLEWLVVIWSDGSTTYNSALKSRLTISKDNSKSQVFLKMNSLQTDDTAMYYCARQGGYRYDDAMDYWGQGTSVAVSS VL: DIVLTQSPASLAVSLGQRATISCKASQSVDYDGNSYVNWYQQKPGQPPKLLIYAASNLESGIPARFSGSGSGTDFTLNIHPVEEEDAATYYCQQSNEDPYTFGGGTKLEIK | binds | 1.5 nM | 0.000334 s⁻¹ | 223000 M⁻¹ s⁻¹ | binds |  |  |  |  | 
1353-G10-scFv × 1649-A01-Fab (bispecific antibody, V domains shown, scFv-Fc × Fab bi-specific; also called Sample C; protein sample C) VH 1: EVQLVQSGAEVKKPGASVKVSCKASGYRFPHYGISWVRQAPGQGLEWMGWISAYNGNTNYAQKLQGRVTMTTDTSTNTAYMELRSLRSDDTAVYYCARDVDYGTGSGYWGQGTLVTVSS VL 1: SYELTQPPSVSVSPGQTARITCSGDALPKQYAYWYQQKPGQAPVMVIYKDTERPSGIPERFSGSSSGTKVTLTISGVQAEDEADYYCQSADNSITYRVFGGGTKVTVL VH 2: EVQLVESGGGLVQPGGSLRLSCAASGFNISRYYIHWVRQAPGKGLEWVAGITPVRGYTEYADSVKDRFTISADTSKNTAYLQMNSLRAEDTAVYYCARGYVYRMWDSYDYWGQGTLVTVSS VL 2: not shown |  |  |  |  |  | 11 nM | 0.05 nM | 4.4 nM | 1.3 nM | 29 nM
Mouse hybridoma clone 2D5 (antibody, V domains shown, Mouse antibody; also called 421.51.2.2D5.5E9) VH: EVQLQQSGPELVKPGTSMKISCRASGYPFIGYTMNWVKQSHGGNLEWIGLINPYNGITTYNQKFKGRATLSVDTSSTIAYMELLSLTSDDSAEYYCARSFFYGSSNDWLVYWGQGTLVTVSA VL: DVLMTQTPLSLPVSLGDQASISCRSSQSIVHTNGNTYLEWYLQKPGQSPKLLIYKVSNRFSGVPDRFSGSGSGTDFTLKISRVEAEDLGVYYCFQGSHVPWTFGGGTELEIK | no binding | 0.431 nM | 0.000166 s⁻¹ | 386000 M⁻¹ s⁻¹ | binds |  |  |  |  | 
